Test results as given in patent CN1552735A.

Key:
CD44抗原 (THP-1细胞系表面) [1] = molecular target: CD44抗原 (THP-1细胞系表面) (UniProt P16070); assay: flow cytometry on CD44-positive THP-1 cells, HI44a 20 μl (1 mg/ml) then PBS (positive control), goat anti-mouse IgG-FITC
CD44抗原 (THP-1细胞系表面) [2] = molecular target: CD44抗原 (THP-1细胞系表面) (UniProt P16070); assay: flow cytometry on THP-1 cells, HI44a 20 μl (1 mg/ml) then competitor anti-CD44 ScFv 100 μl (1 mg/ml), goat anti-mouse IgG-FITC

结合阳性率 (CD44抗原 (THP-1细胞系表面) [1]): 51% | 结合阳性率 (经抗CD44 ScFv竞争后) (CD44抗原 (THP-1细胞系表面) [2]): 27.1%
B1: 抗CD44单克隆抗体HI44a (antibody, IgG2a, V domains shown)
VH: QVKLQESGPGILQPSQTLSLTCSISGFSLNTSGMGVSWIRQPSGKGLEWLAHIYWDDGKRYNPSLKSRLTISKDTSRNQVFLKITSVDTADTGTYYCARRAYGINFAFDYWGQGTTVTVSS
VL: DIQLTQTAAILSVSPGERVSFSCRTSQSIGTSIHWYHQRTNGSPRLLIKSASESMSGIPSRFSGSGSGTDFTLSINSVESEDIAYYYCQQSNSWPLTFGAGTKLEIKR
